Assay results reported in article PMC9256654, “Mechanistic basis for maintenance of CHG DNA methylation in plants” (Nature Communications, 2022).

How the values were obtained:
[1] = target: Zea mays ZMET2 (residues 130-912), core fragment harboring the CD, BAH and MTase domains (Zea mays) (UniProt Q9AXT8)
[2] = target: A. thaliana CMT3 (residues 42-839) (A. thaliana) (UniProt Q94F88)
[3] = target: Zea mays ZMET2 (residues 130-912), core fragment harboring the CD, BAH and MTase domains (Zea mays) (UniProt Q9AXT8); remark: listed apart in the source

Zea mays ZMET2 (residues 130-912), core fragment harboring the CD, BAH and MTase domains (Zea mays), sequence (Q9AXT8 130-912): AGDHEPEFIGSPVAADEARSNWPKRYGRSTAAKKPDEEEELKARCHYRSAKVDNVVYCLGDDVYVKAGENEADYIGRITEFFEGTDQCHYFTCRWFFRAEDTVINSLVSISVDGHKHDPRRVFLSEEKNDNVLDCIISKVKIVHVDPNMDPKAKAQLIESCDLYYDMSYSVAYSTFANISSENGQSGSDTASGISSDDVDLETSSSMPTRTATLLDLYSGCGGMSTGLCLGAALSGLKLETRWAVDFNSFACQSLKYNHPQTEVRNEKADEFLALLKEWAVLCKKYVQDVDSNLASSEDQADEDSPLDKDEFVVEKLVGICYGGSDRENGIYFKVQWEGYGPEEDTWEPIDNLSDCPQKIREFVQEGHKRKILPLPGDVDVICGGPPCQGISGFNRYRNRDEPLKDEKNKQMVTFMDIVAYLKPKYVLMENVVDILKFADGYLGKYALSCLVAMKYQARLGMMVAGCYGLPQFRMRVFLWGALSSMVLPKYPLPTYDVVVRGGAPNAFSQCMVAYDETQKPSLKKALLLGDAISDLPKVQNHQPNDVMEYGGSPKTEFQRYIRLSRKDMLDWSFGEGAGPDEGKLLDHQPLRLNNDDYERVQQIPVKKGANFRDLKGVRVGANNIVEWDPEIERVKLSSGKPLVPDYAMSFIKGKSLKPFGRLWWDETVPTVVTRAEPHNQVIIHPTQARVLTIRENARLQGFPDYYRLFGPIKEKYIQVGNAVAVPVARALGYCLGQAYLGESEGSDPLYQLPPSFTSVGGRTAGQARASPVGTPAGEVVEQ
A. thaliana CMT3 (residues 42-839) (A. thaliana), sequence (Q94F88 42-839): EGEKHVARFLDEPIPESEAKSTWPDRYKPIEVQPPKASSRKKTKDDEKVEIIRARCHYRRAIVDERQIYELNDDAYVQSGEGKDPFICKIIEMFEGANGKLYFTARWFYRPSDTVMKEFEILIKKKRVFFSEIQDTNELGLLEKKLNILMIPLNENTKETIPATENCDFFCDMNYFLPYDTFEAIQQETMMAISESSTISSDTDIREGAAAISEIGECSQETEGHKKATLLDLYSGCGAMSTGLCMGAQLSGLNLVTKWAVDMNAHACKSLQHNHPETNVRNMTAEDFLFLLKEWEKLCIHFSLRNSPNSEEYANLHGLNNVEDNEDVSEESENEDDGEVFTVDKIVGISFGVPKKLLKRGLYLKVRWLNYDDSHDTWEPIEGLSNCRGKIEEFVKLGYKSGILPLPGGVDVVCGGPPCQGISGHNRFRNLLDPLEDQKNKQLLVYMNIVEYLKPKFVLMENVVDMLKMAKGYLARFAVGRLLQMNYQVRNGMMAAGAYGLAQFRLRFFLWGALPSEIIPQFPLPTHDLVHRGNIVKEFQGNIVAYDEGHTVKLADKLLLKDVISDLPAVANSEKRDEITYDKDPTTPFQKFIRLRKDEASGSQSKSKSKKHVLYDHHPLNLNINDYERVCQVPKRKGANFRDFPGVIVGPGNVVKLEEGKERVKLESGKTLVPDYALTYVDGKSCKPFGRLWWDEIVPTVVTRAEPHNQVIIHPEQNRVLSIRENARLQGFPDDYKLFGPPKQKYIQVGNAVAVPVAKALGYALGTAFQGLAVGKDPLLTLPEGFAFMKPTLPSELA

Substance: histone H3K9me2 peptide encompassing residues 1-32, followed by a C-terminal tyrosine (from UniProt P68431 2-33)
- in vitro DNA methylation activity of ZMET2 on hmCHG DNA, fold stimulation by the peptide [1]: 15 fold
- in vitro DNA methylation activity of ZMET2 on unmodified CAG DNA, fold stimulation by the peptide [1]: 6 fold

Substance: histone H3K9me2K18ac peptide residues 1-32, followed by a C-terminal tyrosine (from UniProt P68431 2-33)
- in vitro DNA methylation activity of CMT3, reduction of the enzymatic stimulation against H3 (1–32)K9me2 [2]: > 3 fold
- in vitro DNA methylation activity of ZMET2, reduction of the enzymatic stimulation against H3 (1–32)K9me2 [3]: > 3 fold
